Our source for the stoichiometry N values is PMC4640858.

This experiment has as its target QsdR (Quorum sensing degradation Regulation) wild type, transcriptional regulator of the TetR/FabR family (Rhodococcus erythropolis R138). Description: SEC; gel filtration Superdex 200 26/60, buffer A (50 mM Tris-HCl pH 8, 150 mM NaCl); molecular mass estimate 44 kDa.

One may read the stoichiometry N as a count of units in the complex or per binding partner.

As for “QsdR (Quorum sensing degradation Regulation) wild type, transcriptional regulator of the TetR/FabR family (natural protein)”, the stoichiometry N is 2.
